Here are results for 1 molecule from patent US20220348666A1 (SUZHOU CONNECT BIOPHARMACEUTICALS, published 2022).

Values joined by “and” are separate entries in the source; they are usually repeats but may differ in a detail not shown here. Equal values may be shown once.

The target in test [1] is T1, sIL-4Rα (antigen, expressed according to NM_000418.4) (human, UniProt P24394 26-232, limits assumed).
T1 construct: Soluble form coated on the ELISA plate; also called human interleukin-4 receptor alpha
T1 sequence (looked up): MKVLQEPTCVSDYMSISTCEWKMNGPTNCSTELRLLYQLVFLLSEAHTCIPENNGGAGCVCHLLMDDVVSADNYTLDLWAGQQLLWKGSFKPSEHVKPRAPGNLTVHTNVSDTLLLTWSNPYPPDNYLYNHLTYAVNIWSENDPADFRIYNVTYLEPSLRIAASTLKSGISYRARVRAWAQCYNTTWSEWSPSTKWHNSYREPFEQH
As to the kind of experiment: indirect ELISA, sIL-4Rα coated on plate, enzyme labeled secondary antibody, average value of 6 runs. As to the method: (§1) The antigen (sIL-4Rα, expressed according to NM_000418.4) was coated and absorbed on a solid phase plate for ELISA, and then plate was washed, blocked and washed again before adding the samples to be tested for binding with the antigen. The samples to be tested were dilutions of the formulation prepared according to Example 6 of the present application, and the dilutions were obtained by diluting the formulation with 1% BSA to an antibody concentration of 1000 ng/mL, and subsequently performing a gradient dilution from an initial concentration of 1000 ng/mL to a concentration of 0 ng/mL. The unbound antibody was removed through washing after incubation, and an enzyme labeled secondary antibody was added for further incubation. After the unbound enzyme labeled secondary antibody was removed through washing, enzyme reaction substrate was added for color developing. Finally, the reaction was stopped by adding a stop solution, and absorbance values were read at 450 nm and 655 nm on a microplate reader. According to the absorbance values, half effective concentration EC₅₀ was calculated by curve fitting.
A general note: An ELISA detects its analyte on a solid surface through an enzyme-linked reagent.

The target in test [2] is T1, sIL-4Rα (antigen, expressed according …). As to the kind of experiment: indirect ELISA, sIL-4Rα coated on plate, enzyme labeled secondary antibody, run 1. As to the method: as §1
Test [3] shares this target. As to the kind of experiment: indirect ELISA, sIL-4Rα coated on plate, enzyme labeled secondary antibody, run 3. As to the method: as §1
Test [4] concerns the target T2, human interleukin-4 receptor alpha on HEK Blue IL4/IL13 cells (human, UniProt P24394 26-825).
T2 sequence (looked up): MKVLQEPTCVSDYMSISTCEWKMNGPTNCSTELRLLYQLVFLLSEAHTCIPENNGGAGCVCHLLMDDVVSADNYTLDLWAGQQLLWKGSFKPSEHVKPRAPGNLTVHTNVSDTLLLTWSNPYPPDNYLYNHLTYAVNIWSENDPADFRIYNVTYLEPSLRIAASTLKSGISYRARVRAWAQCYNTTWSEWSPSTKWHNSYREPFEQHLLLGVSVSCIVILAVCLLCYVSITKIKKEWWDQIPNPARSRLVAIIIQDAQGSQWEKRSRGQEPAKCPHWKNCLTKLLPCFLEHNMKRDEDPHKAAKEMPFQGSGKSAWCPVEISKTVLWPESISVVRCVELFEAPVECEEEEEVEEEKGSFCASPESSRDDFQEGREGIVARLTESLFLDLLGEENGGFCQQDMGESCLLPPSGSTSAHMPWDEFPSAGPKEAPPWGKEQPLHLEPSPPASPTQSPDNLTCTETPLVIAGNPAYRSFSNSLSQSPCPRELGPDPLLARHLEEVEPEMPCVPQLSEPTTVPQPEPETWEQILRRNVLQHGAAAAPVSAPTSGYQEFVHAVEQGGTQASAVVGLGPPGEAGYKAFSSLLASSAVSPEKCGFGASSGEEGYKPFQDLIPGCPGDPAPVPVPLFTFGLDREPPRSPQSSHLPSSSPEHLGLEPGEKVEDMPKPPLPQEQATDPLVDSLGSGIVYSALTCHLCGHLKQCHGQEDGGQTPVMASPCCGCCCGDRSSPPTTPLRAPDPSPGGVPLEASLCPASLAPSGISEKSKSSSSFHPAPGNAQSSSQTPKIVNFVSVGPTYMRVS
As to the kind of experiment: cell-based or functional assay.

For test [5], the target named is T1, sIL-4Rα (antigen, expressed according …). As to the kind of experiment: indirect ELISA, sIL-4Rα coated on plate, enzyme labeled secondary antibody, run 4. As to the method: as §1
For test [6] the target is unchanged. As to the kind of experiment: indirect ELISA, sIL-4Rα coated on plate, enzyme labeled secondary antibody, run 6. As to the method:
as §1

Test [7] shares this target. As to the kind of experiment: indirect ELISA, sIL-4Rα coated on plate, enzyme labeled secondary antibody, run 5. As to the method:
as §1

Test [8] has the same target. As to the kind of experiment: indirect ELISA, sIL-4Rα coated on plate, enzyme labeled secondary antibody, run 2. As to the method:
as §1

B1: CBP-201 (antibody, human IgG4 S228P, kappa, V domains shown)
VH: EVQLVESGGGLVQPGGSLRLSCAASGFTFSRNAMFWVRQAPGKGLEWVSGIGTGGATSYADSVKGRFTISRDNAKNSLYLQMNSLRAEDTAVYYCARGRYYFDYWGQGTLVTVSS
VL: EIVLTQSPGTLSLSPGERATLSCRASQSVSSSYLAWYQQKPGQAPRLLIYGASSRATGIPDRFSGSGSGTDFTLTISRLEPEDFAVYYCQQYDHSAGWTFGQGTKVEIKR
notes: Monoclonal antibody; also called CBP-201 antibody; CBP-201 formulation
For B1, the EC50 was 1.69 ng/mL and 1.56 ng/mL in test [1]; 1.59 ng/mL and 1.4 ng/mL in test [2]; 1.84 ng/mL and 1.77 ng/mL in test [3]; 1.85 ng/mL and 1.8 ng/mL in test [5]; 1.53 ng/mL and 1.45 ng/mL in test [6]; 1.77 ng/mL and 1.84 ng/mL in test [7]. Also, the EC50 in test [8] was 1.52 ng/mL and 1.28 ng/mL. For the same molecule, the “IC50 (average value) of blocking STAT-6 signal transduction, HEK Blue IL4/IL13 cells with 0.5 ng/mL IL4, Quanti-blue absorbance at 650 nM” value in test [4] is 4.19 ng/mL and 4.51 ng/mL.

In general, EC50 refers to the concentration at which the effect is half-maximal.
